This series in a line: label from the status in PepcDB records.
On to “MQRFVLRDWHYRGLSMSLMAQTDKPNIVIIMTDQQRADLCGREGFPLAVTPYVDQLAQENVWFNKAYTVAPASSPARCSMFTGRFPSATHVRTNHNIPDIFFEQDLVGVLKENGYKTALVGKNHAYLKPADLDFWSEYGHWGKNKKTTPEEKETARFLNQKARGQWLEPSPIPVEEQHPAKIVNETLSWIESQKENPFFVWVSFPEPHNPYQVCEPYYSMFSPDKLPVLKTSRKDLEKKGEKYRILAELEDASCPNLEQDLPRIRANYIGMIRLIDDQIKRLIESLKASGQFENTIFVVLSDHGDYWGEYGLIRKGAGLSESLARIPMVWAGYHVKNQSAPMDSHVSIADIFPTLCSAIGAKIPAGVQGRSLWPMLTGKEYPKEEFSSIVVQQGFGGAHVGLDSSLTFEQEGALTPGKIAYFDELNTWTQSGTSRMVRKDDWKLVMDNYGNGELYNLKKDPSEVDNLFGKKKYTAVQTELLTKLVAWELRLQDPLPLPRKRYHFKQDPYNYLQPEQLEHHHHHH”, for which the protein production result is given as “failed”.
For “MIFRQLFDPQSSTYTYLLADPASREALLIDPVFEQVRRDAALLDELGLRLVATVDTHVHADHVTGAWLLKQRTGSTIAISAASGAQGADRYLNDGDRCAFGARYLTVRATPGHTSGCISLVLDDESMAFTGDCLLIRGTGRTDFQQGDPRALYRAVHARLFTLPAACLLYPAHDYRGLTVTSVGEERRFNPRLGGDLSEDDFAGYMRNLGLAHPRQIDVAVPANLQCGVAANAPDALAAADWAPLVYTFAGFWEIDPQWLEDHLPAVQVVDVREPDEFAGPLGHLPGATPIPLGELAARTGELARDRPIVTVCRAGGRSAQATVILLKAGFDAVANLGGGMLRWRGEGRVVMDGRS” the value was “failed”; for “MRDATYPQLWAAVRAARKAGRTLESVKPAADQFQVKHNGDIVTEADRTVEETILAELSGQFPVHTVVSEESAPEFTTKPRWIIDPIDGTTNFLNGIPHYSISIAFEGAGEPDVGIVYHVPSETMYTAIEGGGAYANGQPLSLSATTELSEALIVTGFDTASMQAQEYDHFRTILNVTQGVRRFGSAAGELAMVAAGQFDAFFERQLSVWDTAAGVKIVEEAGGEVTRIKALDGKNSEMVLASNEAIHQDLVALVSAGTVPKMDGQ”, “failed”.
As for “MNIAVQTLRALAETIVTPSYLLTIIVIMIMFYMKNRRISFMQRMIIGQNIESPFELTLSQITLSIIAGALGSVILSYLGVVFKDNSAIVLLFLISVILMFAGSRFLCFSYSGSILGIISIVIQFLSVNKIADVSSIKFLEIDVVMIMSLVGVLHIVEGIIVMIDGKSGAIPVFTNREDKIIGGFAFKRYWVLPITLLFLLNNADLNGTVNVATPDSWPIIRTAFTVIGKSAVISFMMFYGIIGYKSVTFTKSKRKKTFMSGMAIALYGAVLLGLSQVLKHNLEQQIILCLLAPLLHETMLRLEAYSEVKGKPKFVSGEDGVMVLDVAPNSQAYEMGIKSGDLLLEINDTKIFSEEDITRSIQNMSKYMWFKIKDVQGKLNEISYDKFDRNKKLGAIFVPKGMPKESKIVKFEHKSFDDILDNVNKEDENKKDQK”, the entry is “failed”.
For “MTTRTRNLYILMLANLLMSASMTMIMPFLSLYIETFGDYSNAYVQRWAGYIFGVTFLIAFIFSPIWGRIGDKHGYKGILILTSVGLSICIFLMGFAHSVTYLLILRIFMGVVTGFIGVSNAFIARQTPRNEAGKVLGTLQLGGVTGMLFGPLIGGAMADLFGFKDTFTITGIAMMVAALIVAFGVKEIRTEEQKEAAKVVYSRRAVLKQIFTLRVLFTVMVITALIQIANFSVQPLLALYVGDMTQSDNIAFLSGLAFSATGFGNLVMTRKWGQLGDKYGYEKILNILLIMAAVFVIPQAFATNLWVFIFFRFLFGIAIGGMVPCTTAYIRLAAPGVMQGEMLGYNQSARFLGNVIGPILGGTLAGFTGIPSVFLFMSFMFLVAFFILLYALRSDRKRHVNVD” the value was “failed”; for “LDSELELPAGWEKIEDPVYGIYYVDHINRKTQYENPVLEAKRKKQLE”, “not failed”.
As for “MTDQIREHLVSMLVHNKPGVMRKVANLFARRGFNISSITVGESETPGLSRLVIMVKGDDKTIEQIEKQAYKLVEVVKVTPIDPLPENRVEREMALIKVRFDEDKQEIFQLVEIFRGKIIDVSREGAIIEITGARSKVEAFINLLPQKQVEEIARTGIVAMNRWNVKEGEGF”, the protein production result is “not failed”.
For “MRRFGKWLGRVLLAALCAALVIGLWKGEEIKRLMAVNSLFEPDLIVRNFSNMDAAFLHTPVGEAQTPPSALPDGPKMTLPDGTAAWLAARKVTSLVVLSNGQLVHESYHLGTKAEDRRISWSLAKSYISALTGIVLAQGSIASLDDPVTRYAPRLKGGAYDGATVRNVLNMATGVTFDEDYTDYDSDINRMGRVLALGGLMDDFAAGLTQTFARPGSEWQYVSIDTHVLGMVIRAATGRSVVDLMGAHIITPLGLESTPYYLTDGAGVAFALGGLNMTTRDYARFGQMMAQHGAWNGRQIVPKNWVIDSTTASAPTGPDEYGYGYQWWMPRDARPREYMGRGIYGQYLYINEEQGVVVALTAADAAFRDADVQQQNIALFREIADRVQGDANGKR” the value was “failed”; for “MLHHVEINVDHLEESIAFWDWLLGELGYEDYQSWSRGKSYKHGKTYLVFVQTEDRFQTPTFHRKRTGLNHLAFHAASREKVDELTQKLKERGDPILYEDRHPFAGGPNHYAVFCEDPNRIKVEIVAP”, “not failed”.
As for “MINMCYNFENVKKAYEDQLKNYIKNSLIPNLSSHANNEVVKISMKKLANLGFGYLVDSTLSSITGYYKVRDWIEELLKEELQKSGENKCCNIVLCDYPEEFEISMREIPYYVNKVVKFNGVIISASYPCVLSKKHLYICPKCGRIKEVYFSELFWDDKVFCEFCGGKMEFANVMDYENFQELVVQDLSDESEYYGIEKNPIVWYCGAKPYYFGHVKITGIVREVPRSSKSRIYELIVQAINVEKLGVEKSLINLTEEDVKNIKKVAKRGDIIDILADILIPPLLCDDAIVRKAILIQQIAPYLEDIGKINILLVTEVGIDKTAILKRIGNIPGNNFINIAALKEEELATPYDKRSNILGKFYTVCGGVIPRTLGVLCIDDFNENNKLSTKLSEAFERNVLTTNKGSFYCVPAECSFLCACYPKTKFRKFDQKKSIIKQIGISSILLKNFDLIFPIRDIPDKDRDEEVAKYIFLKYINSDNEEIEGYDYVFVDVGGEKIKIDFEFLKKYVVYSRQITPKITDEVIEKISNWYDEMRKNHYITAKQLNTVIKLSIAVARAKLKECVDEDDVKEAIDIIMHYLKQVVYNPKKGIIDVILLYKNKT”, the entry is “failed”.
“MRSFILRARSAPTDSQRLLDEIGGKCHTEILAHCMMNSLFTAQSHREDVVIHLVLESTRDYSRTITVEANEISDVGGFHEAALIALLVKALDASVGMGKEQTRVVQPGLTVRTISFEALLGELAEHHSLYMMDKKGDSIRDIKIGPNPCFILTDHIPMPKKSGNSMKRLGVEKISLGPKMLFASQCVTLIHNEIDHQEA”: the protein production entry is on record as “not failed”.
As for “SALIAALSVSGLPSNRFTFEGFLPAKPTARRDRLTHLAHEPRTLIFYEASHRIAECLTDLATIFGSMRIAVVARELTKIFETVLDGTLATLQTQVANDENQRKGEFVIIVQGAADQ”, the entry is “failed”; as for “MKQPLRVLISCRPEENSGGKRSEQNDAVFEFAAWLARTSDINVRGITTFIRPWPSSSISKLGGKYHKWYKNLDSYYRSRTIKGLKEAGVEKSQWDDDVSVFVDGPSESTLLTHAAEEFEADLILLGSDATAPKGRFLASSTADALLHSSPVPLGLVPRGVKLSKKGVTRVNYAFTNESDDFEQGLRSSAELATNWNVPLRILAFSPTGITSAPTSRSLDISTELSSEWRELTLAMLDRARDGVLTDHPNLSVSSETGSGWGWSGAIDALRWKKGDLLCMGSHRTDTLSRVFVGSETMEIIRNSPVPTIIYPGL”, “failed”.
For “MESDRNLNYINLFMIFVNLIIIVFTSEIMTITLYKISSEFMARDFLDQITVIPWKPQNITIVSIGAYIILIILITVKKKYAKFLNKWEIAALLLCEIFFSVAIMTALNMSYNGIILFIIADLVTNTKDKSNKIIFLILMIIIYIFSVYDFISLKIKMVSFENFLYYYTANRRSYLMELKSILNSINIIVFILYMIVFIQVQMRENEKITSLNKKLNLANEKLEVMNVQLKEYAVKIGSMAETRERNRMAREIHDTLGHALTGISVGIDACLTTIDVSKELTKKQLNIIADVAREAIKDVRRSVKKLRPDALENSSLQDALNNMISRISKATKTKVFLNANIKLLKFGHDEEDTIYRIIQEGITNSIRHGQAEEIYIDMIRRDKQLNITIRDNGKGCANVEEGFGLRHIEERVKLLNGTVEYDGSDSFLITVNIPIRWGDGS” the value was “failed”.

The record behind these values is a protein production outcome set (Wang et al. 2014).
